Test results reported in PMC4609183 (The EMBO Journal, 2015).

B1: R0RBR parkin (residues 141–465, lacking Ubl domain and linker) (domain or fragment, human, UniProt O60260 141-465, looked up)
chain: SIYNSFYVYCKGPCQRVQPGKLRVQCSTCRQATLTLTQGPSCWDDVLIPNRMSGECQSPHCPGTSAEFFFKCGAHPTSDKETSVALHLIATNSRNITCITCTDVRSPVLVFQCNSRHVICLDCFHLYCVTRLNDRQFVHDPQLGYSLPCVAGCPNSLIKELHHFRILGEEQYNRYQQYGAEECVLQMGGVLCPRPGCGAGLLPEPDQRKVTCEGGNGLGCGFAFCRECKEAYHEGECSAVFEASGTTTQAYRVDERAAEQARWEAASKETIKKTTKPCPRCHVPVEKNGGCMHMKCPQPQCRLEWCWNCGCEWNRVCMGDHWFDV

Assays:
Assay in all cases: ITC; 50 μM R0RBR, full-length parkin or phosphoparkin titrated with Ub, Ubl or their variants; 25°C; 50 mM HEPES, 50 mM NaCl, 250 μM TCEP pH 7.5 or 50 mM HEPES, 150 mM NaCl, 0.5 mM TCEP pH 8.0; single-site model
Conditions in all cases: both partners purified
ubiquitin = ubiquitin (UniProt P0CG47 1-76)
phosphoubiquitin = phosphoubiquitin (UniProt P0CG47 1-76, phosphoserine at 65)
[1] = biological target: B1

| Kd (ubiquitin) [µM] | Kd (phosphoubiquitin) [µM] | Kd [1] [µM] | dH [1] [kcal/mol] | stoichiometry N [1] | Binder |
| --- | --- | --- | --- | --- | --- |
| 67 ± 1 | 0.016 ± 0.002 |  |  |  | B1 |
|  |  | 3.8 ± 1.3 | -10.5 ± 0.717 | 0.98 | parkin Ubl domain (domain or fragment, human, UniProt O60260 1-76, looked up) MIVFVRFNSSHGFPVEVDSDTSIFQLKEVVAKRQGVPADQLRVIFAGKELRNDWTVQNCDLDQQSIVHIVQRPWRK |
